For this experiment, the target named is soluble human fibrin (human) (UniProt P02679). Briefly: SPR. (In general: Surface plasmon resonance follows binding to a sensor surface in real time, without labels.)

This note sets out measurements from PMC8945615.

Chain of UniProt P02679 (P02679 whole entry, looked up, tested part not stated): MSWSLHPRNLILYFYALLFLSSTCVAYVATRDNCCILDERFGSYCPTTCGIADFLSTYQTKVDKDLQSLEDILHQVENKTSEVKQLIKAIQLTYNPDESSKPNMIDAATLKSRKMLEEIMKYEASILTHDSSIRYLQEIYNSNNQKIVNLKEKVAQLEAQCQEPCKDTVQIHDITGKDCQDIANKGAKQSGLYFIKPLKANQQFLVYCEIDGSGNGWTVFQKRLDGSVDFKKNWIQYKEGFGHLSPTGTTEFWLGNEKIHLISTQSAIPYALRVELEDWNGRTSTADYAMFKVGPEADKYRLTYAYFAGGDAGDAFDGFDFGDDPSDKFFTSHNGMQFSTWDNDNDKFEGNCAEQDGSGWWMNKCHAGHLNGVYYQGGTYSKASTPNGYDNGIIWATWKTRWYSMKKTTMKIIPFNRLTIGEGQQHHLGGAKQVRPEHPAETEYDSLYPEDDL

The substance “full-length, purified αIIbβ3 (from UniProt P08514 32-1039; P05106 27-788) (receptor)” registered a KD2 (heterogeneous ligand model) of 3.79e-07; a KD2 (heterogeneous ligand model, primed with PT25-2) of 1.37e-07; a Kd1 (heterogeneous ligand model) of 1.47e-07; a Kd1 (heterogeneous ligand model, primed with PT25-2) of 4.78e-08. Also, the fold increase of ka1 on priming with PT25-2 (against unprimed αIIbβ3) was 3 fold, the ka1 (heterogeneous ligand model) worked out at 13400 and the kd1 (heterogeneous ligand model) was found to be 0.00196.
